Patent US20240350597A1, “PROTEASE INHIBITORS” (University College Dublin, priority 2023, published 2024)

Molecular target: Cathepsin L (UniProt P07711)
Assay: cell-based or functional assay

CatL inhibition (residual activity on Z-FR-AMC after 2 min incubation with serpin, 1:5 protease:serpin): 95%
Substance: Wild Type SerpinB3 (from UniProt P29508 1-390)
